According to article PMC3642234 (Biochimica et biophysica acta, 2013):

T1: recombinant human pancreatic triglyceride lipase (human, UniProt P16233 17-465)
T1 sequence: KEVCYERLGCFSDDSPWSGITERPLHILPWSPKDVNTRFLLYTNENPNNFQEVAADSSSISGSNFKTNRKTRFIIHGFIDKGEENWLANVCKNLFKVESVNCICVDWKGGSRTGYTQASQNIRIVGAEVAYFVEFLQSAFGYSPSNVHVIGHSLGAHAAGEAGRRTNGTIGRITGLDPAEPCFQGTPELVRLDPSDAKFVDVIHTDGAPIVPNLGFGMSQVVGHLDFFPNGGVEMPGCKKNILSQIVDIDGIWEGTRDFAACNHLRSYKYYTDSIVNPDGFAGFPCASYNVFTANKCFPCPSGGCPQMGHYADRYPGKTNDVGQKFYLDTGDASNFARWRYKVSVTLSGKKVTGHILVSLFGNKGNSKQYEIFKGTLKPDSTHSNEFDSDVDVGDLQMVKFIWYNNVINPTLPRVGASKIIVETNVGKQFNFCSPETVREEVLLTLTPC

B1: wild-type human colipase (natural protein, UniProt P04118 18-112, looked up)
chain: APGPRGIIINLENGELCMNSAQCKSNCCQHSSALGLARCTSMASENSECSVKTLYGIYYKCPCERGLTCEGDKTIVGSITNTNFGICHDAGRSKQ

Columns and labels:
[1] = molecular target: recombinant human pancreatic triglyceride lipase (human) (UniProt P16233); test: co-sedimentation
[2] = molecular target: T1, recombinant human pancreatic …; test: co-sedimentation

Molecule | apparent Kd (colipase at half-maximal absorption of PTL to tributyrin emulsion) [1] [nM] | apparent Kd (colipase at half-maximal absorption of PTL to tributyrin emulsion) [2] [nM]
L16A human colipase (natural protein) | 25.7 | 
F84A human colipase (natural protein) | 108 | 
Y55A human colipase (natural protein) | 78.6 | 
I79A human colipase (natural protein) | 36 | 
B1 |  | 22.8
